Data set [1] concerns the target T1, FANCD2 WT;FANCI WT (Gallus gallus;Gallus gallus, UniProt Q68Y81;B0I564 1-1439;1-1338, |). Put plainly: EMSA; unlabelled D2-I; EMSA: 50 mM HEPES pH 8.0, 75 mM NaCl, 1 mM TCEP, 20 nM DNA, 20-22 C; switchSENSE: 20 mM HEPES pH 8.0, 75 mM NaCl, 1 mM TCEP, 25 C; cryo-EM and single-molecule:
Conditions: protein: recombinant;recombinant; copies: 1;1; label: 3' FAM on P1; blunt.

In data set [2] the target is FANCD2-ybbR-Cy3;FANCI-ybbR-Cy5 (Gallus gallus;Gallus gallus, UniProt Q68Y81;B0I564 1-1439;1-1338, |). Briefly: EMSA; double-labelled D2-I, affinity comparable to unlabelled; EMSA: 50 mM HEPES pH 8.0, 75 mM NaCl, 1 mM TCEP, 20 nM DNA, 20-22 C; switchSENSE: 20 mM HEPES pH 8.0, 75 mM NaCl, 1 mM TCEP, 25 C; cryo-EM and single-molecule:
Conditions: protein: recombinant;recombinant; copies: 1;1; label: 3' FAM on P1; blunt. Background: A gel shift assay detects complexes by their altered migration in electrophoresis.

Data set [3] deals with T1, FANCD2 WT;FANCI WT. Put plainly: cryo-EM; stalled state; 24 bp duplex modelled; EMSA: 50 mM HEPES pH 8.0, 75 mM NaCl, 1 mM TCEP, 20 nM DNA, 20-22 C; switchSENSE: 20 mM HEPES pH 8.0, 75 mM NaCl, 1 mM TCEP, 25 C; cryo-EM and single-molecule:
Conditions: protein: recombinant;recombinant; copies: 1;1; 29 bp duplex; strand 1 has 5' ssDNA 30 nt and 3' ssDNA 40 nt.

T1 sequence (Q68Y81 whole entry, chain 1 of 2): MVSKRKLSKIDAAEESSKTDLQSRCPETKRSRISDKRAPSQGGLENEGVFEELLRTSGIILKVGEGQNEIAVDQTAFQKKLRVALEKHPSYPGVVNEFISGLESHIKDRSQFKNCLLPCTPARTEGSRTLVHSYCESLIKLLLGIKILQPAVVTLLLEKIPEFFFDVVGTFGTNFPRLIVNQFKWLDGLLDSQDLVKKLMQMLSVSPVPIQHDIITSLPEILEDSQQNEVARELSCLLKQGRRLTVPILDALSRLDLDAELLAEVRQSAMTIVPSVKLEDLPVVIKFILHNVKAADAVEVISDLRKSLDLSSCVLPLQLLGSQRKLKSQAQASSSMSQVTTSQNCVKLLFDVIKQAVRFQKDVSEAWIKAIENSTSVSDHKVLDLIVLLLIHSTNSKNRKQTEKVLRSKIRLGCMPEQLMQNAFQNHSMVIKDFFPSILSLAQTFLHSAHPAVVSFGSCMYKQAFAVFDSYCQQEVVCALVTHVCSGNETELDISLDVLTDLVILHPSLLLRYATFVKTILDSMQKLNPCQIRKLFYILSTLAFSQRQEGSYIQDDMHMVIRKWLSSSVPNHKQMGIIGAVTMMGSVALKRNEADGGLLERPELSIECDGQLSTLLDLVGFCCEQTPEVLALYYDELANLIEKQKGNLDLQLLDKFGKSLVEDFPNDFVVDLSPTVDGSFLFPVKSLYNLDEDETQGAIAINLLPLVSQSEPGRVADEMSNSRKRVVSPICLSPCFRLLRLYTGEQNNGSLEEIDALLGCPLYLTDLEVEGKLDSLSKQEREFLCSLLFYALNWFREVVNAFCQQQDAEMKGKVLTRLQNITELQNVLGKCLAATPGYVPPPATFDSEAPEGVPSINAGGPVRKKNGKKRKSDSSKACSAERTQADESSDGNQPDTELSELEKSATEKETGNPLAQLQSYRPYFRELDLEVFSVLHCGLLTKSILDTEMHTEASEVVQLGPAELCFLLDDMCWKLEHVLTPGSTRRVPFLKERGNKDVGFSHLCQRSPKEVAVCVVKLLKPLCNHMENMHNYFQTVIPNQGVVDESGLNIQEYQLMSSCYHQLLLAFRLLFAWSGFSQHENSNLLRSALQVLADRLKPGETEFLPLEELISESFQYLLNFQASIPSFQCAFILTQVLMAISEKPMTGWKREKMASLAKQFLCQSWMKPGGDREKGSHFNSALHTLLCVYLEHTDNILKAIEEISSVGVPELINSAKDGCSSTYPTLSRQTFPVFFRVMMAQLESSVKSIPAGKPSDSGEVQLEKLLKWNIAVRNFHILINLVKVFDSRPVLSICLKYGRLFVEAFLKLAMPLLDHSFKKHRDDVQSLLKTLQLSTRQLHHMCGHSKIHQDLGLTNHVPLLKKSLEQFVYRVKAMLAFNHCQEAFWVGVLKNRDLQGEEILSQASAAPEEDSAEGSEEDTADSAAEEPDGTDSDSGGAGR
T1 sequence (B0I564 whole entry, chain 2 of 2): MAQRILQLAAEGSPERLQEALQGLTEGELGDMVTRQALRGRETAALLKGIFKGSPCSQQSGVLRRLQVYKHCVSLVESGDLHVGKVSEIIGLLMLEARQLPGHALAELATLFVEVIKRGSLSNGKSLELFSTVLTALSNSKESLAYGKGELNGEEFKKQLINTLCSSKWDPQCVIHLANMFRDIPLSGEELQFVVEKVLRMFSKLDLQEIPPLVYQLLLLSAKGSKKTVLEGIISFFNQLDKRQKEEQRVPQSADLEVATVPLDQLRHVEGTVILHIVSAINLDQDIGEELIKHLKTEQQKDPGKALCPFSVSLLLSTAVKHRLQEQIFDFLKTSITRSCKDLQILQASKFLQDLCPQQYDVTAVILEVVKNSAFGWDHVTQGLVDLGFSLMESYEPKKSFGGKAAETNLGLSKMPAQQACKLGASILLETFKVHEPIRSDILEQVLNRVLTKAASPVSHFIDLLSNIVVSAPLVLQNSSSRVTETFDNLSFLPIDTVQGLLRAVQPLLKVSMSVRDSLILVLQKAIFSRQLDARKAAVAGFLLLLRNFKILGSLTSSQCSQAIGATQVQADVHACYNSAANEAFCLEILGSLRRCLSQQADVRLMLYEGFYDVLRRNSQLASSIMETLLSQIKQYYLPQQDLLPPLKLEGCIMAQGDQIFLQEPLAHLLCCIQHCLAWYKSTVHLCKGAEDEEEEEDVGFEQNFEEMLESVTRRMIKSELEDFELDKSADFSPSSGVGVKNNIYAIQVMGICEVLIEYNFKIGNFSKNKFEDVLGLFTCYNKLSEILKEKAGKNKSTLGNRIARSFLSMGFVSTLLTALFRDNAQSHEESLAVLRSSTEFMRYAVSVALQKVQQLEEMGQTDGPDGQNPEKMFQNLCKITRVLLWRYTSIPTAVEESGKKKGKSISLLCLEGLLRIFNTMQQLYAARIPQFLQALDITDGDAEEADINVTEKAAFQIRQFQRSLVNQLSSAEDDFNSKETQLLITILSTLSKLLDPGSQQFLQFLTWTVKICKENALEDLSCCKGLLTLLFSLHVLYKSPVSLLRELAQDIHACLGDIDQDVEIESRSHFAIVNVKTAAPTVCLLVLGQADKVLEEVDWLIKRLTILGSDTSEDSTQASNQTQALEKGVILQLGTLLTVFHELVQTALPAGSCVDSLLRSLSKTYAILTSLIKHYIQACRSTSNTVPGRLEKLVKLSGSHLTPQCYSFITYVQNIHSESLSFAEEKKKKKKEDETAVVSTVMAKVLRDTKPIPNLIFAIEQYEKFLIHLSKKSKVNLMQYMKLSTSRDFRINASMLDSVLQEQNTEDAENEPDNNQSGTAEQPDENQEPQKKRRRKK
Sequence of FANCD2-ybbR-Cy3;FANCI-ybbR-Cy5 (Q68Y81 whole entry, chain 1 of 2): as the sequence (Q68Y81 whole entry, chain 1 of 2) above
Sequence of FANCD2-ybbR-Cy3;FANCI-ybbR-Cy5 (B0I564 whole entry, chain 2 of 2): as the sequence (B0I564 whole entry, chain 2 of 2) above

B1: 44 bp dsDNA P1/P7 (FAM) (dsDNA)
DNA 1: ATCGATGTCTCTAGACAGCTGCTCAGGATTGATCTGTAATGGCC
DNA 2: GGCCATTACAGATCAATCCTGAGCAGCTGTCTAGAGACATCGAT
Take B1: the binding result in data set [1] and in data set [2] was “binds” throughout.

B2: ss-dsDNA J1/J2 (mixed)
DNA 1: TTTTTTTTTTTTTTTTTTTTTTTTTTTTTTATCGATGTCTCTAGACAGCTGCTCAGGATTGATCTGTAATTTTTTTTTTTTTTTTTTTTTTTTTTTTTT
DNA 2: ATCCTGAGCAGCTGTCTAGAGACATCGAT
With B2, the binding result in data set [3] is “binds”.
